Reference: the DeepSol protein solubility set

Assay: soluble on expression in E. coli; label from the status in PepcDB or PDB records

Row | Sequence | soluble on expression in E. coli
1 | MGSSHHHHHHSSGLVPRGSHMASMTGGQQMGRGSMIIDDLLTKKIIKPRPLNSHKGTFGRVLLIGGNYPYGGAIIMAALACVNSGAGLVTVATHKDNITALHSHLPEAMAFDMVEKDRLSEQITAADVVLMGPGLAEDDLAQTTFDVVWQAIEPKQTLIIDGSAINLLAKRKPAIWPTKQIILTPHQKEWERLSGLTIPEQIEAATQTALAHFPKETILVAKSHQTKIYQGQKIGHIQVGGPYQATGGMGDTLAGMIAGFVAQFHTDRFEVAAAAVFLHSYIADQLSKEAYVVLPTRISAEITRVMKEMSE | soluble
2 | MAAHSIFTTTSTTNSFLYPISSSSSSPNINSSFLGVSLNVNAKFGQSLTLYAVTTPKPLTVFAATKKAVAVLKGNSNVEGVVTLSQDDDGPTTVNVRITGLAPGLHGFHLHEYGDTTNGCMSTGAHFNPNKLTHGAPGDEIRHAGDLGNIVANADGVAEVTLVDNQIPLTGPNSVVGRALVVHELEDDLGKGGHELSLTTGNAGGRLACGVVGLTPI | soluble
3 | MGYRNLPPHLNPLAPLALDDPPGWLTSFKLRRLTADQCASLLAEANRRRLIASRPVADSEGSCPLRNVVRVANFGSVQLSSSFLASCPLALSSALYIEQQAKPLTRQLMASDLRQIDHLGSFACRNIYHRQQARRSEHATADALDVSGFRLADGRRVSVLQGWRSETSRPWLAALLSSSCHYFGNALGPEYNAAHANHFHFGMRGQGFCFLEHHHHHH | not soluble
4 | MRFLSLLCPPVERAAVMRPPYTTHLQRVPLMRKSLLALSLLAATSAPVLAADYSDGDIHKNDYKWMQFNLMGAFDELPGKSSHDYLEMEFGGRSGIFDLYGYVDVFNLATNKSSDKVGDPKIFMKFAPRMSLDAFTGVDMSFGPVQEVYVASLFEWDGTDFKTNAFSVNNQKIGLGSDVMVPWFGKVGLNLYGTYDGNRKDWNGFQISTNWFKPFYFFENGSFISYQGYIDYQFGLKDEYSTASNGGAMFNGIYWHSDRFAVGYGLKGYKDVYGIKDTDGFKSTGFGHYVAVTYKF | not soluble
5 | MSNVPAELKYSKEHEWLRKEADGTYTVGITEHAQELLGDMVFVDLPEVGATVSAGDDCAVAESVKAASDIYAPVSGEIVAVNDALSDSPELVNSEPYTGGWIFKIKASDESELESLLDATAYEALLEDE | not soluble
6 | MSSRPPFGIVKPSKPTGNPSSGSSELDSTAQPPQERGTDLQRASSGSDVHGHPSPGSQSHNLTSAQSGGRNAHKDLHERHVHPSQGYQRHGSKAPAHGHPSSQGARRSQLKLSNFPKLLANLMQDTKATQDFNSKYHSDFKKSKNSLITGESIFKFSHGIINFFFGRTSASCASNQDTLQPTASTMSDGEPEEDKVKLCGNRLEVGVTDNLAGTQRRKEQQQLQGAQAKKQQAPQRVVNRKANHQKLSRKRRYAPYKDDVIGAHGFFNNMR | not soluble
7 | MDPIKQEISEYFKDWMELYKKNAIDEMTYKGYEQTLKYLKTYMPNVLISEITASSYQRALNKFAETHAKASTKGFHTRVRASIQPLIEEGRLQKDFTTRAVVKGLEHHHHHH | soluble
8 | MTERLEFTESAFEILGRKWNGLIIQSLLDSDRGSLHFAELSRSVHACSDRVLTVRLKELEDAGIIKRVCCPDNGKLGYRLTEKGSSMRPLMSEISRWAAENI | not soluble
9 | MPGHRITLTGEKQTLLITLYAKALDSRLDDSILHDRFAEEAVRQIDFDFSRVALGKGNERALAMRSHYFDQACREFLGRHPEGQVLNLGCGLDSRIYRVDPPAELPWFDLDYPEVMDLRERLYPPRAGAYRALRHSVDDDGWLQGVPRERPALVLAEGLMPYLRESQVRRLVERLVDHLGSGELLFDGYGRLGIMLLRLYPPLRETGAQVHWSIDDPRELERWHPALRFIEEVTDYDPQDVAKLPQSSRLMLPIYNGFAFLRRMGRLIRYRWPRV | not soluble
10 | MGSDKIHHHHHHMKRKRIDGMNIEIITATIDMLEEIVAIQTAAFSEREPMTMSLNFTKEEMYDYFLKIIPESINSGLTMAAVDEDKGAIAAVVICFDAFAVFPNMEWTQKEIDGISKTNIFFEELEKPLNTNPAFKPEKCVRLMYVSTDENYLRRGIARKLGESMINRAIDLGYELMIADATNINSAGMFEKLGFWQEKVLPYKLVEKDGLKAFGNVEGECILYSRYLQENCFS | not soluble
11 | SYPYLMLSGHQYPQMAYYRGTLKKPNQYFGPYPNSNAVRDSIQVLQKVFMLRTCEDSVFEHRDRPCLLYQIKRCTAPCVGHISEEDYRDSVREAATFLNGKTDELTRTLQHKMQTAAANLQFEEAARYRDQIQALGIMQSNQFIDSKNPNNPNDIDLLALAVSDGLVCVHWVSIRGGRHVGDKSFFPDTKNDPEPNGQDYAEAFVAQHYLGKSKPDIIISNFPVPDALKEALEGEHGKQMQFVTKTIGERKVRLKMAEQNAQMAIAQRRLQQSSQQHRIDELAKILGMDSDGLNRLECFDISHTQGEATIASCVVYDEQNIQPSQYRRYNITTAKPGDDYAAMREVLTRRYGKMQEAEANGETVKWPDAVLIDGGKGQIGVAVSVWEELGLHIPLVGIAKGPERKAGMEELILPFTGEVFRLPPNSPALHLLQTVRDESHRFAITGHRKKRDK | not soluble
12 | GMTLAALCQGVLERLDPRQPGRQLVALSGAPGSGKSTLSNPLAAALSAQGLPAEVVPMDGFHLDNRLLEPRGLLPRKGAPETFDFEGFQRLCHALKHQERVIYPLFDRARDIAIAGAAEVGPECRVAIIEGNYLLFDAPGWRDLTAIWDVSIRLEVPMADLEARLVQRWLDHGLNHDAAVARAQGNDLANARAIEAARLPADLTWPQA | soluble
13 | MIPFDYERATDVDSAVATVTGDPRASFLAGGTNLVDHMKLGVARPHLLVDVSRLPLGDVVELPDGGLRIGAAVRNSDLAAHDVVRARYPMLSRALLSGASGQLRNLATTAGNLLQRTRCVYFQDVTTPCNKREPGTGCSAIGGYVRYHAILGASEHCVAVHPSDMAVAMTALDGVVVVRGADGERRIPLSEFYRLPGDRPDRDTVLAHGDLVTAVELPPPPSGNRSAYRKVRDRASFAFAVVSVAAELTIGDTSITSARVALGGVAHRPWRATLAEEVLVGSPPTEATYTEAAAAELAAAQPLPGNEFKVALTRRVLASVLRSLAEEARR | soluble
14 | MTQVYDGFVHLGFSNRNGRTISHKKYQEGNSRVSADNSDANGVPYYFLINMGGGFVEGEQYQVTIDVNKDAHALVTTQTPTYVYKCEKGQLTQQNTSITLEENSYLEYMADEVIPYLKSRYFQTSRIDMDKSAHLIYSDGVTAGWSHEDLPFQYHYFRNLTQIYQDNELVYSDQTLLEPEKQDMFKLGYFEGWRNYNSLVMVSPNIDEAFVKALQKHLEGLNLESDFAISSLDISGLVLRILGKTAEDNRRIIYSCADYFRQEIHGLTPLNLRKNDMRRLEHHHHHH | soluble
15 | MSVRLPLLLRQLGRQQLPSGPACRLRELCRSGSRSSSSGGGDPEGLRGRRLQDGQTFSSHGPGNPEAPGMDSIVRDVIHNSKEVLSLLQEKNPAFKPVLVVIQAGDDNLMKDMNQNLAKEAGLDITHICLPPDSGEDEIIDEILKINEDPRVHGLTLQISEDSLSNKVLNALKPEKDVDGVTDINLGKLVRGDAPECFVSPLAKAAVELVEKSGITLDGKKVLVVGAHGPLEAALQWLFQRKGFMTMSCPWAPPQLPDKLREADIVVLGSPKPEEIPAVWIPSGTTILNCFHDFLSGKLSGGSPGVPVDKLIAEESVSLLAAALRIQNMVSSGRRWLREQQHRRWRLHCLKLQPLSPVPSDIEISRGQTPKAVDVLAKEIGLLADEIEIYGKSKAKVQLSLLERLKDQTDGKYVLVAGITPTPLGEGKSTVTIGLVQALTAHLKVNSFACLRQPSQGPTFGVKGGAAGGGYAQVIPMEEFNLHLTGDIHAITAANNLLAAAIDTRILHESTQTDKALYNRLVPLVNGVREFSEIQLSRLKKLGIHKTDPSTLTEEEVRKFARLNIDPATITWQRVLDTNDRFLRKITIGQGSTEKGYSRQAQFDIAVASEIMAVLALTDSLTDMKERLGRMVVASDKDGQPVTAEDLGVTSALTVLMKDAIKPNLMQTLEGTPVFVHPGPFANIAHANSSVLTDKIALKFVGEEGFVVTEAGFGADIGMEKFFNIKCRASGLVPNVVVLVATVRALKMHVGGPSVTAGVPLKKEYTEENIQMVADGCCNLQKQIQIAQLFGVPVVVALNVFKTDTRAEIDLVCELAKRAGAFDAVPCYHWSAGGKGSVDLARAVREAANKRSRFQFLYDVQLPIVEKIRVIAQTVYGAKDIELSPEAQSKIDRYTQQGFGNLPICMAKTHLSLSHEPDKKGVPRDFTLPISDVRASIGAGFIYPLVGTMSTMPGLPTRPCFYDIDLDTETEQVKGLF | soluble
